Target: spMSP1D1 (MSP1D1 with SpyCatcher at the N-terminus and SpyTag at the C-terminus, circularized)
Test: cross-linking + other: fluorescence fluctuation spectroscopy; spMSPs in PC lipid nanodiscs (cNDs); cross-linking: cNDs 0.5 µM in PBS with EGS, room temperature 1 h, SDS-PAGE; fluctuation spectroscopy: molecular brightness of FITC-labeled spMSPs and cNDs (100 pM) in reconstitution buffer by photon counting histogram

For “spMSP1D1 (MSP1D1 with SpyCatcher at the N-terminus and SpyTag at the C-terminus, circularized)”, the stoichiometry N was 2.
